From patent US10239925B2, “Peptides and combination of peptides for use in immunotherapy against ovarian cancer and other cancers” (IMMATICS BIOTECHNOLOGIES GMBH, priority 2015, dated 2019) come the findings set out here.

The experiment deals with HLA-A*02:01 (Homo sapiens, UniProt P04439, D140Y/D185E/D98H/E176V/E277Q/G131W/G231S/I119V/I121R/I166T/I218V/L300P/L318F/N151K/N90K/P208A/P217A/Q86G/Q94H/R138H/R169H/T345S). The experiment is described as follows: MHC binding assay (UV-ligand exchange, anti-β2m ELISA, peptide exchange yield). As to conditions: binding to HLA-A*02:01. From the text: Candidate peptides for T cell based therapies according to the present invention were further tested for their MHC binding capacity (affinity). The individual peptide-MHC complexes were produced by UV-ligand exchange, where a UV-sensitive peptide is cleaved upon UV-irradiation, and exchanged with the peptide of interest as analyzed. Only peptide candidates that can effectively bind and stabilize the peptide-receptive MHC molecules prevent dissociation of the MHC complexes. To determine the yield of the exchange reaction, an ELISA was performed based on the detection of the light chain (β2m) of stabilized MHC complexes. The assay was performed as generally described in Rodenko et al. (Rodenko et al., 2006).
96 well MAXISorp plates (NUNC) were coated over night with 2 ug/ml streptavidin in PBS at room temperature, washed 4× and blocked for 1h at 37° C. in 2% BSA containing blocking buffer. […] Peptide-MHC monomers of the UV-exchange reaction were diluted 100 fold in blocking buffer. Samples were incubated for 1 h at 37° C., washed four times, incubated with 2 ug/ml HRP conjugated anti-β2m for 1h at 37° C., washed again and detected with TMB solution that is stopped with […]. Absorption was measured at 450 nm. Candidate peptides that show a high exchange yield (preferably higher than 50%, most preferred higher than 75%) are generally preferred for a generation and production of antibodies or fragments thereof, and/or T cell receptors or fragments thereof, as they show sufficient avidity to the MHC molecules and prevent dissociation of the MHC complexes.
For the substance “589 (KLYPQLPAEI; listed as Homo sapiens) [compound 589]”, the “Peptide exchange (MHC class I binding score, peptide exchange yield)” value (from here on “Peptide exchange”) was ““+++” (>50 = +++)”.

Turning to “437 (SMAPGLVIQAV; listed as Homo sapiens) [compound 437]”, the “Peptide exchange” value was ““+++” (>50 = +++)”.

As to “144 (YIMEPSIFNTL; listed as Homo sapiens) [compound 144]”, the “Peptide exchange” value is ““+++” (>50 = +++)”.

For the substance “182 (MLLEAPGIFL; listed as Homo sapiens) [compound 182]”, the “Peptide exchange” value is ““+++” (>50 = +++)”.

Take “284 (ILLSQTTGV; listed as Homo sapiens) [compound 284]”: the “Peptide exchange” value is listed as ““+++” (>50 = +++)”.

For the substance “173 (LLDSASAGLYL; listed as Homo sapiens) [compound 173]”, the “Peptide exchange” value is on record as ““+++” (>50 = +++)”.

Regarding “149 (NLLELFVQL; listed as Homo sapiens) [compound 149]”, the “Peptide exchange” value is given as ““+++” (>50 = +++)”.

“449 (KLAEGLDIQL; listed as Homo sapiens) [compound 449]”: the “Peptide exchange” value is reported as ““+++” (>50 = +++)”.

On to “367 (SLQNHNHQL; listed as Homo sapiens) [compound 367]”, for which the “Peptide exchange” value is ““+++” (>50 = +++)”.

Turning to “339 (GLWEIENNPTVKA; listed as Homo sapiens) [compound 339]”, the “Peptide exchange” value is ““++++” (>75% = ++++)”.

Take “227 (ALMNTLLYL; listed as Homo sapiens) [compound 227]”: the “Peptide exchange” value is recorded as ““++” (>20% = ++)”.

For the substance “307 (ALPVSLPQI; listed as Homo sapiens) [compound 307]”, the “Peptide exchange” value is given as ““+++” (>50 = +++)”.

For “74 (ALLDPEVLSIFV; listed as Homo sapiens) [compound 74]”, the “Peptide exchange” value is ““+++” (>50 = +++)”.

On to “257 (SIFSAFLSV; listed as Homo sapiens) [compound 257]”, for which the “Peptide exchange” value is listed as ““+++” (>50 = +++)”.

Regarding “32 (KLDDLTQDLTV; listed as Homo sapiens) [compound 32]”, the “Peptide exchange” value is recorded as ““++” (>20% = ++)”.

As to “530 (VMYADIGGMDI; listed as Homo sapiens) [compound 530]”, the “Peptide exchange” value is given as ““+++” (>50 = +++)”.

For the substance “490 (FLLQHVQEL; listed as Homo sapiens) [compound 490]”, the “Peptide exchange” value is recorded as ““+++” (>50 = +++)”.

For “512 (SLSEIVPCL; listed as Homo sapiens) [compound 512]”, the “Peptide exchange” value is listed as ““+++” (>50 = +++)”.

As for “139 (SVMEVNSGIYRV; listed as Homo sapiens) [compound 139]”, the “Peptide exchange” value is ““+++” (>50 = +++)”.

“359 (YLLPESVDL; listed as Homo sapiens) [compound 359]”: the “Peptide exchange” value is recorded as ““+++” (>50 = +++)”.

With “390 (ALFMKQIYL; listed as Homo sapiens) [compound 390]”, the “Peptide exchange” value is reported as ““+++” (>50 = +++)”.

On to “145 (FLATSGTLAGI; listed as Homo sapiens) [compound 145]”, for which the “Peptide exchange” value is listed as ““++” (>20% = ++)”.

Turning to “495 (FIFSEKPVFV; listed as Homo sapiens) [compound 495]”, the “Peptide exchange” value is recorded as ““+++” (>50 = +++)”.

As for “501 (LLDPNVKSIFV; listed as Homo sapiens) [compound 501]”, the “Peptide exchange” value is given as ““+++” (>50 = +++)”.

In the case of “311 (RLYTGMHTV; listed as Homo sapiens) [compound 311]”, the “Peptide exchange” value was ““+++” (>50 = +++)”.
